Measured values published in patent US20160152729A1.

Molecular target: human TFPIα (human) (UniProt P10646)
Assay: SPR Biacore T200; antibody captured on anti-human IgG Fc; TFPI as analyte; 1:1 model

Bay 2A8-K95L (antibody)
Kd: 0.485 nM | koff: 0.000399 s⁻¹ | kon: 822000 M⁻¹ s⁻¹
